Legend:
[1] = molecular target: T1, human IL-12 (biotinylated) (human, UniProt P29459 23-219; P29460 23-328, biotinylated (site and subunit not stated)); experiment: mRNA-scFv selected with 50 nM IL-12, bead capture, % of input 35S counts recovered
T1 construct: also called hIL-12
T1 sequence (looked up) 1: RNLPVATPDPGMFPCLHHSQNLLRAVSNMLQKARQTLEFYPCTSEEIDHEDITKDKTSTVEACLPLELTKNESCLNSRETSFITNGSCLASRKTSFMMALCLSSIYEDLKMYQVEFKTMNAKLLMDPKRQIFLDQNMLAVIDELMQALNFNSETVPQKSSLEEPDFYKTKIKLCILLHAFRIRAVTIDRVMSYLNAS
T1 sequence (looked up) 2: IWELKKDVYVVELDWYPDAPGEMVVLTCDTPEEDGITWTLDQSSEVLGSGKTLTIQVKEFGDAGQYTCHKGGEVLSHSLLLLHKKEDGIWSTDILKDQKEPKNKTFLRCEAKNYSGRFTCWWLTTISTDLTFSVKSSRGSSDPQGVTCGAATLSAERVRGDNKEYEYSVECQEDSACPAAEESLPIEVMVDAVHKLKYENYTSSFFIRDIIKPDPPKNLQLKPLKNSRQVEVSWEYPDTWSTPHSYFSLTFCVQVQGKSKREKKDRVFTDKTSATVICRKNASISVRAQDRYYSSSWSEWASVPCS

[2] = molecular target: biotinylated HA tag peptide; experiment: free scFv selected with 50 nM HA; translated with PDI
[3] = molecular target: biotinylated HA tag peptide; experiment: free scFv selected with 50 nM HA; translated without PDI
[4] = molecular target: biotinylated HA tag peptide; experiment: mRNA-scFv (ligated protein) selected with 50 nM HA; translated with PDI
[5] = molecular target: biotinylated HA tag peptide; experiment: mRNA-scFv selected with 50 nM HA; PDI: Yes, RT before selection with DTT
[6] = molecular target: biotinylated HA tag peptide; experiment: mRNA-scFv (ligated protein) selected with 50 nM HA; translated without PDI
[7] = molecular target: biotinylated HA tag peptide; experiment: mRNA-scFv selected with 50 nM HA; PDI: Yes, RT before selection without DTT
[8] = molecular target: biotinylated HA tag peptide; experiment: mRNA-scFv selected with 50 nM HA; PDI: No, RT: No (same value as the 33rd table, row 10, column 5)
[9] = molecular target: biotinylated HA tag peptide; experiment: mRNA-scFv selected with 50 nM HA; PDI: Yes, RT: No (same value as the 33rd table, row 11, column 5)

B1: Y61-scGene3 (Y61 scFv Gene3) (scFv)
scFv: MQVQLVQSGGGVVQPGRSLRLSCAASGFTFSSYGMHWVRQAPGKGLEWVAFIRYDGSNKYYADSVKGRFTISRDNSKNTLYLQMKSLRAEDTAVYYCKTHGSHDNWGQGTMVTVSSGGGGSGGGGSGGGGSSYVLTQPPSVSGTPGQRVTISCSGGRSNIGSNTVKWYQQLPGTAPKLLIYGNDQRPSGVPDRFSGSKSGTSASLAITGVQAEDEADYYCQSYDRGTHPALLFGTGTKLTVLGQPKAAPSVTLPQPPVNAGGGSGGGSGGGSEGGGSEGGGSEGGGSEGGGSGGGSGSGDFDYEKMANANKGAMTENADENALQSDAKGKLDSVATDYDYKDDDDKASAI
notes: also called PF-y61scGene3
[1]
  Percent of Recovery, IL-12 (50 nM selection): 8%

B2: Y61-scGene3pA (Y61 scFv Gene3PA) (scFv)
scFv: MQVQLVQSGGGVVQPGRSLRLSCAASGFTFSSYGMHWVRQAPGKGLEWVAFIRYDGSNKYYADSVKGRFTISRDNSKNTLYLQMKSLRAEDTAVYYCKTHGSHDNWGQGTMVTVSSGGGGSGGGGSGGGGSSYVLTQPPSVSGTPGQRVTISCSGGRSNIGSNTVKWYQQLPGTAPKLLIYGNDQRPSGVPDRFSGSKSGTSASLAITGVQAEDEADYYCQSYDRGTHPALLFGTGTKLTVLGQPKAAPSVTLPQPPVNAGGGSGGGSGGGSEGGGSEGGGSEGGGSEGGGSGGGSGSGDFDYEKMANANKGAMTENADENALQSDAKGKLDSVATDYDYKDDDDKASAI
[1]
  Percent of Recovery, IL-12 (50 nM selection): 6.1%

B3: Y61 scFv short (Y61-scCL-short) (scFv)
scFv: MQVQLVQSGGGVVQPGRSLRLSCAASGFTFSSYGMHWVRQAPGKGLEWVAFIRYDGSNKYYADSVKGRFTISRDNSKNTLYLQMKSLRAEDTAVYYCKTHGSHDNWGQGTMVTVSSGGGGSGGGGSGGGGSSYVLTQPPSVSGTPGQRVTISCSGGRSNIGSNTVKWYQQLPGTAPKLLIYGNDQRPSGVPDRFSGSKSGTSASLAITGVQAEDEADYYCQSYDRGTHPALLFGTGTKLTVLGQPKAAPSVTLDYKDDDDKASAI
notes: Human anti-hIL-12 scFv, in vitro translated with 35S-methionine; tested as free protein or as mRNA-scFv (ligated protein), as said under assay; also called Y61-CL-short
[1]
  Percent of Recovery, IL-12 (50 nM selection): 21.1%

B4: 17/9 scFv (spacer form not stated) (scFv)
scFv: EVQLVESGGGLVQPGRSLRLSCAASGFTFDDYAMHWVRQAPGKGLDWVSAITWNSGHIDYADSVEGRFAVSRDNAKNALYLQMNSLRPEDTAVYYCTKASYLSTSSSLDNWGQGTLVTVSSGGGGSGGGGSGGGGSDIQMTQSPSSLSASIGDRVTITCRASQGIRNYLAWYQQKPGKAPKLLIYAASTLQSGVPSRFSGSGSGTDFTLTISSLQPEDVATYYCQKYNSAPYAFGQGTKVEIKR
[2]
  % of Recovery, HA (50 nM) selection: 30.5%
[3]
  % of Recovery, HA (50 nM) selection: 3.3%
[4]
  % of Recovery, HA (50 nM) selection: 12.4%
[5]
  % of Recovery, HA (50 nM) selection: 2%
[6]
  % of Recovery, HA (50 nM) selection: 2.3%
[7]
  % of Recovery, HA (50 nM) selection: 9.4%
[8]
  % of Recovery, HA (50 nM) selection: 2.3%
[9]
  % of Recovery, HA (50 nM) selection: 12.4%

Reference: patent publication US20100105569A1 (AbbVie / Abbott, published 2010)
